Laboratory results from the supplement of paper PMC9112550, “Optimization of the antimicrobial peptide Bac7 by deep mutational scanning” (BMC Biology, 2022).

system: Escherichia coli TOP10; experiment: shrunken log2 fold change of peptide-encoding DNA abundance (4.5 h post-induction vs induction); higher = less antimicrobial activity (less host growth inhibition); conditions: time post-induction: 4.5 h; library: site-saturation at positions 5, 18, 19, 20
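Also: peptides expressed intracellularly from a pBAD plasmid library in pooled LB shake-flask culture, induced with 0.3% L-arabinose, DNA abundance read by NGS, three biological replicates, DESeq2 with apeglm shrinkage.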

RRIRVRPPRLPRPRPRPWLAPRP and RRIRLRPPRLPRPRPRPAWWPRP are within 0.2 log units of each other in “shrunken log2 fold change” value: 0.232 for the first, 0.173 for the second.

First: RRIRKRPPRLPRPRPRPCYAPRP
Second: RRIRERPPRLPRPRPRPVLNPRP
The “shrunken log2 fold change” value of the first is higher: 0.083 for the first, -0.54 for the second.

RRIRMRPPRLPRPRPRPMNCPRP and RRIRWRPPRLPRPRPRPMNWPRP are within 0.2 log units of each other in “shrunken log2 fold change” value: -0.00776 for the first, 0.0484 for the second.

Going from RRIRMRPPRLPRPRPRPKHRPRP to RRIRFRPPRLPRPRPRPKHTPRP, the “shrunken log2 fold change” value falls from 0.229 to -0.0698.

RRIRNRPPRLPRPRPRPAPHPRP and RRIRARPPRLPRPRPRPRKLPRP are within 0.2 log units of each other in “shrunken log2 fold change” value: 0.227 for the first, 0.424 for the second.

RRIRIRPPRLPRPRPRPGRDPRP and RRIRERPPRLPRPRPRPDMNPRP are within 0.2 log units of each other in “shrunken log2 fold change” value: 0.0442 for the first, -0.00248 for the second.

Going from RRIRQRPPRLPRPRPRPKPPPRP to RRIRCRPPRLPRPRPRPEMCPRP, the “shrunken log2 fold change” value falls from 0.27 to 0.0156.

RRIRTRPPRLPRPRPRPWKPPRP and RRIRNRPPRLPRPRPRPHQAPRP are within 0.2 log units of each other in “shrunken log2 fold change” value: 0.0143 for the first, -0.0146 for the second.

Compared with RRIRGRPPRLPRPRPRPAGNPRP, RRIRNRPPRLPRPRPRPCYEPRP is lower in “shrunken log2 fold change” value: 0.693 for the first, -0.0244 for the second.

Compared with RRIRDRPPRLPRPRPRPKSAPRP, RRIRGRPPRLPRPRPRPEEWPRP is higher in “shrunken log2 fold change” value: 0.0797 for the first, 1.7 for the second.

First: RRIRERPPRLPRPRPRPEIFPRP
Second: RRIRWRPPRLPRPRPRPTGVPRP
The “shrunken log2 fold change” value of the first is lower: -0.00264 for the first, 0.334 for the second.

RRIRFRPPRLPRPRPRPVLKPRP and RRIRVRPPRLPRPRPRPDISPRP are within 0.2 log units of each other in “shrunken log2 fold change” value: -0.24 for the first, -0.0643 for the second.

Going from RRIRERPPRLPRPRPRPMRLPRP to RRIRARPPRLPRPRPRPCSHPRP, the “shrunken log2 fold change” value falls from 0.472 to 0.0574.

Compared with RRIRARPPRLPRPRPRPRIMPRP, RRIRGRPPRLPRPRPRPASRPRP is higher in “shrunken log2 fold change” value: 0.121 for the first, 0.705 for the second.

First: RRIRGRPPRLPRPRPRPSISPRP
Second: RRIRKRPPRLPRPRPRPSMRPRP
The “shrunken log2 fold change” value of the first is lower: 0.0894 for the first, 0.915 for the second.

RRIRWRPPRLPRPRPRPQGWPRP and RRIRARPPRLPRPRPRPCVTPRP are within 0.2 log units of each other in “shrunken log2 fold change” value: 0.0714 for the first, 0.176 for the second.

RRIRKRPPRLPRPRPRPWTAPRP and RRIRIRPPRLPRPRPRPFSHPRP are within 0.2 log units of each other in “shrunken log2 fold change” value: 0.00666 for the first, -0.177 for the second.

RRIRHRPPRLPRPRPRPEDTPRP and RRIRKRPPRLPRPRPRPDTSPRP are within 0.2 log units of each other in “shrunken log2 fold change” value: 0.0437 for the first, 0.0236 for the second.

RRIRARPPRLPRPRPRPVMKPRP and RRIRTRPPRLPRPRPRPGNSPRP are within 0.2 log units of each other in “shrunken log2 fold change” value: -0.205 for the first, -0.169 for the second.

RRIRFRPPRLPRPRPRPRKEPRP and RRIRDRPPRLPRPRPRPKYEPRP are within 0.2 log units of each other in “shrunken log2 fold change” value: -0.0425 for the first, -0.00728 for the second.

Compared with RRIRYRPPRLPRPRPRPIIRPRP, RRIRHRPPRLPRPRPRPRKIPRP is higher in “shrunken log2 fold change” value: -0.2 for the first, 0.051 for the second.

RRIRNRPPRLPRPRPRPRGQPRP and RRIRLRPPRLPRPRPRPDGGPRP are within 0.2 log units of each other in “shrunken log2 fold change” value: 0.114 for the first, -0.000524 for the second.

Compared with RRIRWRPPRLPRPRPRPLVHPRP, RRIRMRPPRLPRPRPRPRRMPRP is higher in “shrunken log2 fold change” value: -0.11 for the first, 0.73 for the second.

First: RRIRHRPPRLPRPRPRPKNPPRP
Second: RRIRARPPRLPRPRPRPKFSPRP
The “shrunken log2 fold change” value of the first is lower: -0.155 for the first, 0.173 for the second.

Going from RRIRYRPPRLPRPRPRPQYLPRP to RRIRNRPPRLPRPRPRPHFSPRP, the “shrunken log2 fold change” value rises from -3.15 to 0.0053.

Going from RRIRFRPPRLPRPRPRPHKDPRP to RRIRGRPPRLPRPRPRPAGYPRP, the “shrunken log2 fold change” value rises from -0.709 to 0.164.

RRIRWRPPRLPRPRPRPCPMPRP and RRIRDRPPRLPRPRPRPRSIPRP are within 0.2 log units of each other in “shrunken log2 fold change” value: -0.0512 for the first, -0.0279 for the second.

Going from RRIRQRPPRLPRPRPRPFTPPRP to RRIRVRPPRLPRPRPRPTQSPRP, the “shrunken log2 fold change” value rises from -0.388 to 0.332.

Going from RRIRHRPPRLPRPRPRPKSNPRP to RRIRWRPPRLPRPRPRPVTGPRP, the “shrunken log2 fold change” value rises from -0.216 to 0.183.

Going from RRIRWRPPRLPRPRPRPMSWPRP to RRIRHRPPRLPRPRPRPKKLPRP, the “shrunken log2 fold change” value falls from 0.0971 to -0.104.

Going from RRIRSRPPRLPRPRPRPMLPPRP to RRIRSRPPRLPRPRPRPREQPRP, the “shrunken log2 fold change” value rises from -0.078 to 0.796.

RRIRRRPPRLPRPRPRPFYMPRP and RRIRPRPPRLPRPRPRPDECPRP are within 0.2 log units of each other in “shrunken log2 fold change” value: -0.198 for the first, -0.041 for the second.

Compared with RRIRPRPPRLPRPRPRPMYLPRP, RRIRWRPPRLPRPRPRPLVDPRP is higher in “shrunken log2 fold change” value: -0.257 for the first, 0.0816 for the second.

Compared with RRIRHRPPRLPRPRPRPECWPRP, RRIRRRPPRLPRPRPRPFNQPRP is lower in “shrunken log2 fold change” value: 0.514 for the first, -0.0554 for the second.

RRIRARPPRLPRPRPRPEHTPRP and RRIRHRPPRLPRPRPRPDANPRP are within 0.2 log units of each other in “shrunken log2 fold change” value: 0.0124 for the first, 0.152 for the second.

RRIRVRPPRLPRPRPRPSRNPRP and RRIRHRPPRLPRPRPRPDTGPRP are within 0.2 log units of each other in “shrunken log2 fold change” value: -0.0696 for the first, -0.014 for the second.

Compared with RRIRPRPPRLPRPRPRPCGTPRP, RRIRLRPPRLPRPRPRPACAPRP is higher in “shrunken log2 fold change” value: 0.155 for the first, 0.541 for the second.

First: RRIRTRPPRLPRPRPRPAHVPRP
Second: RRIRYRPPRLPRPRPRPTYKPRP
The “shrunken log2 fold change” value of the first is higher: 0.0505 for the first, -1.17 for the second.

RRIRLRPPRLPRPRPRPKLRPRP and RRIRSRPPRLPRPRPRPDYPPRP are within 0.2 log units of each other in “shrunken log2 fold change” value: -0.00715 for the first, -0.0733 for the second.

Going from RRIRHRPPRLPRPRPRPVFKPRP to RRIRGRPPRLPRPRPRPKRPPRP, the “shrunken log2 fold change” value rises from 0.126 to 0.969.

RRIRNRPPRLPRPRPRPQWFPRP and RRIRKRPPRLPRPRPRPSMSPRP are within 0.2 log units of each other in “shrunken log2 fold change” value: -0.0391 for the first, 0.14 for the second.

Going from RRIRCRPPRLPRPRPRPRPAPRP to RRIRKRPPRLPRPRPRPCINPRP, the “shrunken log2 fold change” value falls from 0.834 to -0.162.

Going from RRIRERPPRLPRPRPRPWHCPRP to RRIRFRPPRLPRPRPRPQFNPRP, the “shrunken log2 fold change” value falls from -0.0723 to -0.628.

RRIRYRPPRLPRPRPRPIPHPRP and RRIRYRPPRLPRPRPRPTCGPRP are within 0.2 log units of each other in “shrunken log2 fold change” value: 0.046 for the first, 0.0163 for the second.

Compared with RRIRCRPPRLPRPRPRPEEDPRP, RRIRWRPPRLPRPRPRPKVKPRP is higher in “shrunken log2 fold change” value: -0.00229 for the first, 0.49 for the second.

First: RRIRGRPPRLPRPRPRPSWFPRP
Second: RRIRPRPPRLPRPRPRPIMFPRP
The “shrunken log2 fold change” value of the first is higher: 0.373 for the first, -0.37 for the second.

RRIRHRPPRLPRPRPRPFACPRP and RRIRQRPPRLPRPRPRPINWPRP are within 0.2 log units of each other in “shrunken log2 fold change” value: -0.205 for the first, -0.0302 for the second.

Compared with RRIRVRPPRLPRPRPRPNQLPRP, RRIRPRPPRLPRPRPRPFALPRP is higher in “shrunken log2 fold change” value: -0.188 for the first, 0.238 for the second.

First: RRIRDRPPRLPRPRPRPHHNPRP
Second: RRIRNRPPRLPRPRPRPMGRPRP
The “shrunken log2 fold change” value of the first is lower: -0.562 for the first, -0.117 for the second.

Going from RRIRGRPPRLPRPRPRPKDKPRP to RRIRVRPPRLPRPRPRPSNYPRP, the “shrunken log2 fold change” value falls from 0.558 to -0.342.

Going from RRIRWRPPRLPRPRPRPSCYPRP to RRIRFRPPRLPRPRPRPCRRPRP, the “shrunken log2 fold change” value rises from -0.122 to 0.122.

RRIRRRPPRLPRPRPRPHEEPRP and RRIRKRPPRLPRPRPRPEWKPRP are within 0.2 log units of each other in “shrunken log2 fold change” value: 0.0957 for the first, 0.0315 for the second.

RRIRYRPPRLPRPRPRPMTLPRP and RRIRLRPPRLPRPRPRPGNEPRP are within 0.2 log units of each other in “shrunken log2 fold change” value: -0.0394 for the first, -0.0032 for the second.

RRIRWRPPRLPRPRPRPANFPRP and RRIRVRPPRLPRPRPRPGQCPRP are within 0.2 log units of each other in “shrunken log2 fold change” value: 0.106 for the first, -0.0287 for the second.

For RRIRARPPRLPRPRPRPREDPRP, the “shrunken log2 fold change” value was 0.879.
